These results are taken from US20140274782A1, “AFFINITY REAGENTS AND METHODS FOR DETECTION, PURIFICATION, AND PROTEOMIC ANALYSIS OF METHYLATED PROTEINS” (The Board of Trustees of the Leland Stanford Junior …, priority 2013, published 2014).

One assay deals with 3×MBT domain of L3MBTL1. As to the kind of experiment: Triple SILAC pull-down, 3xMBT/3xMBTD355N ratio (cytoplasmic, nuclear and chromatin fractions of 293T cells).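 As to all read-outs here: proteins quantified with MaxQuant, requiring at least two unique peptides and quantification in both label directions, normalized to the mean of proteins from a digested loading control.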 It counts as binding, human. The note with it: SILAC ratio; for 3xMBT/D355N UNC Heavy / 3xMBT/D355N UNC Light: pull-down 3xMBT vs 3xMBTD355N; for 3xMBT/D355N UNC Heavy: experiment with UNC0638 in heavy SILAC media; for 3xMBT/D355N UNC Light: experiment with UNC0638 in light SILAC media.

The next assay addresses T1, G9a and GLP (Homo sapiens, UniProt Q96KQ7+Q9H9B1).
T1 sequence (Q96KQ7 2-1210 limits assumed): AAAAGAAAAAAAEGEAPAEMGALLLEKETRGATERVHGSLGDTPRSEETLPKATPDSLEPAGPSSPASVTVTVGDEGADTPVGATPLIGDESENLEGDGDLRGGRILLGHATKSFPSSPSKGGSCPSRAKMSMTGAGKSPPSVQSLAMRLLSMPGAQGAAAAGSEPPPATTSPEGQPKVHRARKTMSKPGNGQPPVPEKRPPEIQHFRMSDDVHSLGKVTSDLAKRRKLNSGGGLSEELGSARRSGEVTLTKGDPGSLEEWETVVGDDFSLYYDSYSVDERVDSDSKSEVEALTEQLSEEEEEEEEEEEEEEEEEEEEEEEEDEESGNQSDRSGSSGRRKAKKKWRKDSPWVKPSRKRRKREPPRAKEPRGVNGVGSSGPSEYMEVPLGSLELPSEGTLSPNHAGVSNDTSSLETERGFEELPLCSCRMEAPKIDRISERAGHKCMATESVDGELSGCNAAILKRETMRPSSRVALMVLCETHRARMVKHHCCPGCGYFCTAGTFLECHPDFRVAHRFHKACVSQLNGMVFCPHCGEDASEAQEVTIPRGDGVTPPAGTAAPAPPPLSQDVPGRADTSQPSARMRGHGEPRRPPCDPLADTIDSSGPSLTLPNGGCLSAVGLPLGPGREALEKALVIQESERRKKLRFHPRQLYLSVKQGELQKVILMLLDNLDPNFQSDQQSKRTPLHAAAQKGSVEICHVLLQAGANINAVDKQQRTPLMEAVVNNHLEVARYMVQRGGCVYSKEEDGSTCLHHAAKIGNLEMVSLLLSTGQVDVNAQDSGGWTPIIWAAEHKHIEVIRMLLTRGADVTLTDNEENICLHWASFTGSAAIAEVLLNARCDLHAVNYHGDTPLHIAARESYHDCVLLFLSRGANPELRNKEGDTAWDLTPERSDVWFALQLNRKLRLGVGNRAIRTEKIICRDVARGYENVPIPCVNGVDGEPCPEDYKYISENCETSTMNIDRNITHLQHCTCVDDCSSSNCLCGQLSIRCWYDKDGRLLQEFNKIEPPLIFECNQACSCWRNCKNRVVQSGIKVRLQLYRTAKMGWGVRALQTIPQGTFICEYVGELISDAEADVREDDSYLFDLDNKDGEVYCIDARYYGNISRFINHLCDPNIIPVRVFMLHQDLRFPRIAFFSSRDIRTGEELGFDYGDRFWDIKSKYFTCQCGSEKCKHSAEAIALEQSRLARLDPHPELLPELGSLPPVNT
T1 sequence (Q9H9B1 2-1298 limits assumed): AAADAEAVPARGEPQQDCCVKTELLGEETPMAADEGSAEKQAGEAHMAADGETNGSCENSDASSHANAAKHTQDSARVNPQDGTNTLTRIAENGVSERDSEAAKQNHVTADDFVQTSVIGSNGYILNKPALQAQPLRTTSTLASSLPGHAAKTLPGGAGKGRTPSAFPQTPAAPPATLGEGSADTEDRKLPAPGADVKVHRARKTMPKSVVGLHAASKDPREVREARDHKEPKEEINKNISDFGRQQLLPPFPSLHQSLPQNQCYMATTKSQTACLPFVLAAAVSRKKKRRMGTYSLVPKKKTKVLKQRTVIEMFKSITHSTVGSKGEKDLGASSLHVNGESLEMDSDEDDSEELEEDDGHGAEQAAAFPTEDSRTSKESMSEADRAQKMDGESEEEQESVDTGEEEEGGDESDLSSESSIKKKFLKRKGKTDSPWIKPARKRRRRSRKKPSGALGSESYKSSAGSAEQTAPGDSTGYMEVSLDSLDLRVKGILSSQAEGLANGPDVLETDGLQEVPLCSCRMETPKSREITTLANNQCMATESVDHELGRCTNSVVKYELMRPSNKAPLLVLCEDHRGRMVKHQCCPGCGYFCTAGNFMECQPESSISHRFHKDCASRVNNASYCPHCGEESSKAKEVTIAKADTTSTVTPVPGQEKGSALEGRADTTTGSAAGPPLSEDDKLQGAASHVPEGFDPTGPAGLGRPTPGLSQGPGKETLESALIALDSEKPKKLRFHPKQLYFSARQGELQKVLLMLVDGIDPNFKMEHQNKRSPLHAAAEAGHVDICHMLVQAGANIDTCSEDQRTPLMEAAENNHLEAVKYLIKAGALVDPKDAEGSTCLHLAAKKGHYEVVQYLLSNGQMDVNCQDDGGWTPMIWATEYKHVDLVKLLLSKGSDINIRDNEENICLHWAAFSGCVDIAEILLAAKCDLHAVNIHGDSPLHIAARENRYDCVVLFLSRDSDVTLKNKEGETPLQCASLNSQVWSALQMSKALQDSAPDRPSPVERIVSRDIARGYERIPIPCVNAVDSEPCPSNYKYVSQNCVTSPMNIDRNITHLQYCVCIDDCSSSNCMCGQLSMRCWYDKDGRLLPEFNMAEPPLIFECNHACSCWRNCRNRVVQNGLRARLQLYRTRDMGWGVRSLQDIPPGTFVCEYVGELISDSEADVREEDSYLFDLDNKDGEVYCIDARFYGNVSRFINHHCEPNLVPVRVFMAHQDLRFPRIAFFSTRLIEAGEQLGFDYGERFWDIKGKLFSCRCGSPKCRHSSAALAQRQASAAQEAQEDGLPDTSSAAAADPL
As to the kind of experiment: Triple SILAC pull-down after UNC0638 treatment of 293T cells, DMSO/UNC0638 ratio of protein captured by 3×MBT.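 As to all read-outs here: mass spectrometry (Q-Exactive) SILAC quantitation, DMSO/UNC0638 ratio computed after subtracting 3×MBTD355N mutant pull-down background, only proteins with at least twofold 3×MBT over mutant signal considered.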 It counts as cell-based. Further details: cells were treated for 24 hours with UNC0638 at 2.5 μM or DMSO vehicle control; endogenous in cells; host or cells: HEK 293T. The following applies: for Relative to UNC0638 UNC Heavy / Relative to UNC0638 UNC Light: SILAC ratio DMSO/UNC0638 of protein pulled down with 3xMBT; for Relative to UNC0638 UNC Heavy: UNC0638 in heavy SILAC media; for Relative to UNC0638 UNC Light: UNC0638 in light SILAC media; for Relative to UNC0638 Average: average of UNC Light and UNC Heavy experiments.

B1: CHERP (protein, UniProt Q8IWX8 1-916, looked up)
Calcium homeostasis …: MEMPLPPDDQELRNVIDKLAQFVARNGPEFEKMTMEKQKDNPKFSFLFGGEFYSYYKCKLALEQQQLICKQQTPELEPAATMPPLPQPPLAPAAPIPPAQGAPSMDELIQQSQWNLQQQEQHLLALRQEQVTAAVAHAVEQQMQKLLEETQLDMNEFDNLLQPIIDTCTKDAISAGKNWMFSNAKSPPHCELMAGHLRNRITADGAHFELRLHLIYLINDVLHHCQRKQARELLAALQKVVVPIYCTSFLAVEEDKQQKIARLLQLWEKNGYFDDSIIQQLQSPALGLGQYQATLINEYSSVVQPVQLAFQQQIQTLKTQHEEFVTSLAQQQQQQQQQQQQLQMPQMEAEVKATPPPPAPPPAPAPAPAIPPTTQPDDSKPPIQMPGSSEYEAPGGVQDPAAAGPRGPGPHDQIPPNKPPWFDQPHPVAPWGQQQPPEQPPYPHHQGGPPHCPPWNNSHEGMWGEQRGDPGWNGQRDAPWNNQPDAAWNSQFEGPWNSQHEQPPWGGGQREPPFRMQRPPHFRGPFPPHQQHPQFNQPPHPHNFNRFPPRFMQDDFPPRHPFERPPYPHRFDYPQGDFPAEMGPPHHHPGHRMPHPGINEHPPWAGPQHPDFGPPPHGFNGQPPHMRRQGPPHINHDDPSLVPNVPYFDLPAGLMAPLVKLEDHEYKPLDPKDIRLPPPMPPSERLLAAVEAFYSPPSHDRPRNSEGWEQNGLYEFFRAKMRARRRKGQEKRNSGPSRSRSRSKSRGRSSSRSNSRSSKSSGSYSRSRSRSCSRSYSRSRSRSRSRSRSSRSRSRSQSRSRSKSYSPGRRRRSRSRSPTPPSSAGLGSNSAPPIPDSRLGEENKGHQMLVKMGWSGSGGLGAKEQGIQDPIKGGDVRDKWDQYKGVGVALDDPYENYRRNKSYSFIARMKARDECK
As for B1, in the assay on 3×MBT domain of L3MBTL1, the “3xMBT/D355N UNC Heavy” value was determined as 1.58 log base 2 and the “3xMBT/D355N UNC Light” value was 2.26 log base 2. Also, in the assay with G9a and GLP, the “Relative to UNC0638 UNC Heavy” value is recorded as 0.38 log base 2, the “Relative to UNC0638 UNC Light” value worked out at 0.05 log base 2 and the “Relative to UNC0638 Average” value amounted to 0.22 log base 2.

B2: PEF1 (protein, UniProt Q9UBV8 1-284, looked up)
Peflin: MASYPYRQGCPGAAGQAPGAPPGSYYPGPPNSGGQYGSGLPPGGGYGGPAPGGPYGPPAGGGPYGHPNPGMFPSGTPGGPYGGAAPGGPYGQPPPSSYGAQQPGLYGQGGAPPNVDPEAYSWFQSVDSDHSGYISMKELKQALVNCNWSSFNDETCLMMINMFDKTKSGRIDVYGFSALWKFIQQWKNLFQQYDRDRSGSISYTELQQALSQMGYNLSPQFTQLLVSRYCPRSANPAMQLDRFIQVCTQLQVLTEAFREKDTAVQGNIRLSFEDFVTMTASRML
Take B2: in the assay on 3×MBT domain of L3MBTL1, the “3xMBT/D355N UNC Heavy” value was found to be 1.48 log base 2 and the “3xMBT/D355N UNC Light” value came out at 1.78 log base 2. For the same molecule, in the assay with G9a and GLP, the “Relative to UNC0638 UNC Heavy” value turned out to be 0.30 log base 2, the “Relative to UNC0638 UNC Light” value came out at 0.17 log base 2 and the “Relative to UNC0638 Average” value was 0.24 log base 2.

B3: WD repeat-containing protein 70 (protein, UniProt Q9NW82 1-654, looked up)
WD repeat-containing protein …: MERSGPSEVTGSDASGPDPQLAVTMGFTGFGKKARTFDLEAMFEQTRRTAVERSRKTLEAREKEEEMNREKELRRQNEDIEPTSSRSNVVRDCSKSSSRDTSSSESEQSSDSSDDELIGPPLPPKMVGKPVNFMEEDILGPLPPPLNEEEEEAEEEEEEEEEEENPVHKIPDSHEITLKHGTKTVSALGLDPSGARLVTGGYDYDVKFWDFAGMDASFKAFRSLQPCECHQIKSLQYSNTGDMILVVSGSSQAKVIDRDGFEVMECIKGDQYIVDMANTKGHTAMLHTGSWHPKIKGEFMTCSNDATVRTWEVENPKKQKSVFKPRTMQGKKVIPTTCTYSRDGNLIAAACQNGSIQIWDRNLTVHPKFHYKQAHDSGTDTSCVTFSYDGNVLASRGGDDSLKLWDIRQFNKPLFSASGLPTMFPMTDCCFSPDDKLIVTGTSIQRGCGSGKLVFFERRTFQRVYEIDITDASVVRCLWHPKLNQIMVGTGNGLAKVYYDPNKSQRGAKLCVVKTQRKAKQAETLTQDYIITPHALPMFREPRQRSTRKQLEKDRLDPLKSHKPEPPVAGPGRGGRVGTHGGTLSSYIVKNIALDKTDDSNPREAILRHAKAAEDSPYWVSPAYSKTQPKTMFAQVESDDEEAKNEPEWKKRKI
With B3, the “Protein Ratios 3xMBT/D355N” value with 3×MBT domain of L3MBTL1 (pull-down by 3xMBT vs 3xMBTD355N, 293T cells) is listed as 5.9. Also, the “Protein Ratios DMSO/UNC0638” value with G9a and GLP (SILAC ratio of protein captured by 3xMBT, 293T cells treated 24 hours with UNC0638 at 2.5 μM or DMSO) was found to be 1.3.

B4: ZC3H11A (protein, UniProt O75152 1-810, looked up)
Zinc finger CCCH …: MPNQGEDCYFFFYSTCTKGDSCPFRHCEAAIGNETVCTLWQEGRCFRQVCRFRHMEIDKKRSEIPCYWENQPTGCQKLNCAFHHNRGRYVDGLFLPPSKTVLPTVPESPEEEVKASQLSVQQNKLSVQSNPSPQLRSVMKVESSENVPSPTHPPVVINAADDDEDDDDQFSEEGDETKTPTLQPTPEVHNGLRVTSVRKPAVNIKQGECLNFGIKTLEEIKSKKMKEKSKKQGEGSSGVSSLLLHPEPVPGPEKENVRTVVRTVTLSTKQGEEPLVRLSLTERLGKRKFSAGGDSDPPLKRSLAQRLGKKVEAPETNIDKTPKKAQVSKSLKERLGMSADPDNEDATDKVNKVGEIHVKTLEEILLERASQKRGELQTKLKTEGPSKTDDSTSGARSSSTIRIKTFSEVLAEKKHRQQEAERQKSKKDTTCIKLKIDSEIKKTVVLPPIVASRGQSEEPAGKTKSMQEVHIKTLEEIKLEKALRVQQSSESSTSSPSQHEATPGARRLLRITKRTGMKEEKNLQEGNEVDSQSSIRTEAKEASGETTGVDITKIQVKRCETMREKHMQKQQEREKSVLTPLRGDVASCNTQVAEKPVLTAVPGITRHLTKRLPTKSSQKVEVETSGIGDSLLNVKCAAQTLEKRGKAKPKVNVKPSVVKVVSSPKLAPKRKAVEMHAAVIAAVKPLSSSSVLQEPPAKKAAVAVVPLVSEDKSVTVPEAENPRDSLVLPPTQSSSDSSPPEVSGPSSSQMSMKTRRLSSASTGKPPLSVEDDFEKLIWEISGGKLEAEIDLDPGKDEDDLLLELSEMIDS
On to B4, for which, in the assay with 3×MBT domain of L3MBTL1, the “3xMBT/D355N UNC Heavy” value is on record as 2.23 log base 2 and the “3xMBT/D355N UNC Light” value worked out at 2.81 log base 2. Further, in the assay with G9a and GLP, the “Relative to UNC0638 UNC Heavy” value is reported as 0.32 log base 2, the “Relative to UNC0638 UNC Light” value stood at 0.12 log base 2 and the “Relative to UNC0638 Average” value is 0.22 log base 2.
